Key:
Test in all cases: holdup assay
Parameters in all cases: key: below the threshold = too weak to quantify, mostly under pKd 3.1 to 4
DLG2_2, Q15700 = biological target: DLG2_2, Q15700
Inadl_6, Q8NI35 = biological target: Inadl_6, Q8NI35
PDZRN4_1, Q6ZMN7 = biological target: PDZRN4_1, Q6ZMN7
LNX1_2, Q8TBB1 = biological target: LNX1_2, Q8TBB1
APBA3_1, O96018 = biological target: T1, APBA3_1, O96018
T1 sequence (O96018 389-490, limits assumed, looked up): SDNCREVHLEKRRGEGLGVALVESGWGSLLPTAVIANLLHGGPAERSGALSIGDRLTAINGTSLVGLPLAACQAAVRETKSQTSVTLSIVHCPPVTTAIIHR

HTRA3, P83110 = biological target: T2, HTRA3, P83110
T2 sequence (P83110 354-453, limits assumed, looked up): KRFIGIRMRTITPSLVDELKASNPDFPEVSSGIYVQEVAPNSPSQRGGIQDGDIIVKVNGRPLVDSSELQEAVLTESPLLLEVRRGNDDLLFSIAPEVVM

GOPC, Q9HD26 = biological target: GOPC, Q9HD26
DVL3, Q92997 = biological target: T3, DVL3, Q92997
T3 sequence (Q92997 244-331, limits assumed, looked up): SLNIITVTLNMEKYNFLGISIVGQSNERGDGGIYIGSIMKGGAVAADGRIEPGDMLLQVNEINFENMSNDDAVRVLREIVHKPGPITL

TJP1_3, Q07157 = biological target: TJP1_3, Q07157
MPP7, Q5T2T1 = biological target: T4, MPP7, Q5T2T1
T4 sequence (Q5T2T1 134-230, limits assumed, looked up): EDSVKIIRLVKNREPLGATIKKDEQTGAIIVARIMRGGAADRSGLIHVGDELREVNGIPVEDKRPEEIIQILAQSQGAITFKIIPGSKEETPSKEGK

NHERF4_1, Q86UT5-2 = biological target: NHERF4_1, Q86UT5-2
HTRA1, Q92743 = biological target: HTRA1, Q92743
LNX2_3, Q8N448 = biological target: T5, LNX2_3, Q8N448
T5 sequence (Q8N448 463-564, limits assumed, looked up): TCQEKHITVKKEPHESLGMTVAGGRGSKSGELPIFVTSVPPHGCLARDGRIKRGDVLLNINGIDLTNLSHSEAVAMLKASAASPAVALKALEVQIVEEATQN

CARD11, Q9BXL7 = biological target: T6, CARD11, Q9BXL7
T6 sequence (Q9BXL7 662-765, limits assumed, looked up): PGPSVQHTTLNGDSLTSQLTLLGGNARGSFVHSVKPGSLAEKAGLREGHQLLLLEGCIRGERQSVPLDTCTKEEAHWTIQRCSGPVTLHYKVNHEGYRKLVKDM

LRRC7, Q96NW7 = biological target: T7, LRRC7, Q96NW7
T7 sequence (Q96NW7 1440-1537, limits assumed, looked up): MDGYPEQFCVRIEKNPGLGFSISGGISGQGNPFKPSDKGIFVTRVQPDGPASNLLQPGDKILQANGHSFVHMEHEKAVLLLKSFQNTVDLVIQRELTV

FRMPD3, Q5JV73 = biological target: FRMPD3, Q5JV73
DLG4_3, P78352 = biological target: DLG4_3, P78352
GRIP2_6, Q9C0E4 = biological target: GRIP2_6, Q9C0E4
TJP3_3, O95049 = biological target: T8, TJP3_3, O95049
T8 sequence (O95049 375-456, limits assumed, looked up): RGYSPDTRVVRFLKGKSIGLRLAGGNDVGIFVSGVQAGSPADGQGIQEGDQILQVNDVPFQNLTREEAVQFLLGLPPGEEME

LAP2, Q96RT1 = biological target: LAP2, Q96RT1
HTRA2, O43464 = biological target: HTRA2, O43464
GRIP1_5, Q9Y3R0 = biological target: T9, GRIP1_5, Q9Y3R0
T9 sequence (Q9Y3R0 568-668, limits assumed, looked up): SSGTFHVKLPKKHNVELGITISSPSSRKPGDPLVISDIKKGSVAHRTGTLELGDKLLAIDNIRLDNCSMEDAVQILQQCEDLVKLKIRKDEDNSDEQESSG

SNTB1, Q13884 = biological target: T10, SNTB1, Q13884
T10 sequence (Q13884 107-205, limits assumed, looked up): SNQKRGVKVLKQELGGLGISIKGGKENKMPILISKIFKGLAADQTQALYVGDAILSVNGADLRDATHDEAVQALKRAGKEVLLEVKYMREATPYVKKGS

GRIP2_4, Q9C0E4 = biological target: GRIP2_4, Q9C0E4
GORASP2, Q9H8Y8 = biological target: GORASP2, Q9H8Y8
LNX1_1, Q8TBB1 = biological target: LNX1_1, Q8TBB1
MAGI3_2, Q5TCQ9 = biological target: MAGI3_2, Q5TCQ9
[1] = plain residues with an end cap or a label only (N-terminal biotin on a linker: ttds)
[2] = plain residues with an end cap or a label only (N-terminal biotin on a linker: ado-ado)
[3] = plain residues with an end cap or a label only (N-terminal biotin on a linker: ahx)

Chain of LNX1_1, Q8TBB1 (Q8TBB1 261-371): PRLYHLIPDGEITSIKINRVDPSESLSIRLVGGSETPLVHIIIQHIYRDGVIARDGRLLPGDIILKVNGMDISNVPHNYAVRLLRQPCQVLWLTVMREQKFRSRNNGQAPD
Chain of GRIP2_4, Q9C0E4 (Q9C0E4 446-548): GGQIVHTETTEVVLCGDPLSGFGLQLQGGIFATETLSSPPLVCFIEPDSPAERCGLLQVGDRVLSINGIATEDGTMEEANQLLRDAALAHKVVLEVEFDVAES
Chain of GRIP2_6, Q9C0E4 (Q9C0E4 648-740): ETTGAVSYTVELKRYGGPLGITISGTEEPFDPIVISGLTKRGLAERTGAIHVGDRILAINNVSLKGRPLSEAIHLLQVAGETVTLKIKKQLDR
Chain of FRMPD3, Q5JV73 (Q5JV73 12-100): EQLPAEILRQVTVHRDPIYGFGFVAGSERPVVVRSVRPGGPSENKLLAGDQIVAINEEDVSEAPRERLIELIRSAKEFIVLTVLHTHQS
Chain of HTRA1, Q92743 (Q92743 360-477): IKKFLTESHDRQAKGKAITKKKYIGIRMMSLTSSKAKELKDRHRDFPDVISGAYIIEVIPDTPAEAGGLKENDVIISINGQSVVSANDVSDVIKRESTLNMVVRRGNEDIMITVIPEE
Chain of NHERF4_1, Q86UT5-2 (Q86UT5 other isoform, or with tags, fused parts or gaps): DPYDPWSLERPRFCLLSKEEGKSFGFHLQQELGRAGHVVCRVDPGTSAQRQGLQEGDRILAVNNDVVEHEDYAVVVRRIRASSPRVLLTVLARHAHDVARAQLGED
Chain of Inadl_6, Q8NI35 (Q8NI35 1058-1167): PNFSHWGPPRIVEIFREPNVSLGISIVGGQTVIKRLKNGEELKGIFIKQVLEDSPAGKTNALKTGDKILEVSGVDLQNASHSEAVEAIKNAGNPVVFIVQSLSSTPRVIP
Chain of PDZRN4_1, Q6ZMN7 (Q6ZMN7 213-318): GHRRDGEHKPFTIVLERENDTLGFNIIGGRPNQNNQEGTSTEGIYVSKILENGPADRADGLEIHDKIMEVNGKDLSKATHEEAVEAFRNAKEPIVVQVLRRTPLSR
Chain of HTRA2, O43464 (O43464 355-458): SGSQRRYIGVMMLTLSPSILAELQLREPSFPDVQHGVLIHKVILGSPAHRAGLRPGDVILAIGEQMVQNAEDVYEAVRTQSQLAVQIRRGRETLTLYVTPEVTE
Chain of DLG4_3, P78352 (P78352 306-403): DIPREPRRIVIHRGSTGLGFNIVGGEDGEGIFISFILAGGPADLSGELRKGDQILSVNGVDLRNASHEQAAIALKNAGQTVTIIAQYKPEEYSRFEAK
Chain of DLG2_2, Q15700 (Q15700 189-283): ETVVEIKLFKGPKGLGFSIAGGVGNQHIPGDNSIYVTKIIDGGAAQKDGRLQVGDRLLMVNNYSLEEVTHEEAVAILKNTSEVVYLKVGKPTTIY
Chain of MAGI3_2, Q5TCQ9 (Q5TCQ9 398-503): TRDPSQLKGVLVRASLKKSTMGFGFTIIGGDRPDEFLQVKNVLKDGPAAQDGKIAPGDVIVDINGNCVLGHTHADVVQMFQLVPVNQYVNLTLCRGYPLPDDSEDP
Chain of LNX1_2, Q8TBB1 (Q8TBB1 371-470): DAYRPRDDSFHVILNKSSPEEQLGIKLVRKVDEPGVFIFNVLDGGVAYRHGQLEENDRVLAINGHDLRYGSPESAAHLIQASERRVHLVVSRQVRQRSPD
Chain of TJP1_3, Q07157 (Q07157 416-512): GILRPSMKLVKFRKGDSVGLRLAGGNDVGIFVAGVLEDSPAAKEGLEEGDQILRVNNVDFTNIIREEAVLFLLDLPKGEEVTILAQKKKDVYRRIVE
Chain of LAP2, Q96RT1 (Q96RT1 other isoform, or with tags, fused parts or gaps): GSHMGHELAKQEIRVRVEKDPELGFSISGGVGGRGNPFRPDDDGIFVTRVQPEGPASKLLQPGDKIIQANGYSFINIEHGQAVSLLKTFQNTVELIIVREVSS

B1: PBK, Q96KB5 (peptide)
chain: HIVEALETDV
- pKd (DLG2_2, Q15700; [1]): 5.28
- pKd (Inadl_6, Q8NI35; [1]): 3.78
- pKd (PDZRN4_1, Q6ZMN7; [1]): below the threshold
- pKd (LNX1_2, Q8TBB1; [1]): below the threshold
- pKd (APBA3_1, O96018; [1]): below the threshold
- pKd (HTRA3, P83110; [1]): below the threshold
- pKd (GOPC, Q9HD26; [1]): below the threshold
- pKd (DVL3, Q92997; [1]): below the threshold
- pKd (TJP1_3, Q07157; [1]): below the threshold
- pKd (MPP7, Q5T2T1; [1]): below the threshold
- pKd (NHERF4_1, Q86UT5-2; [1]): below the threshold
- pKd (HTRA1, Q92743; [1]): below the threshold
- pKd (LNX2_3, Q8N448; [1]): below the threshold
- pKd (CARD11, Q9BXL7; [1]): below the threshold
- pKd (LRRC7, Q96NW7; [1]): 3.91
- pKd (FRMPD3, Q5JV73; [1]): below the threshold
- pKd (DLG4_3, P78352; [1]): below the threshold
- pKd (GRIP2_6, Q9C0E4; [1]): below the threshold
- pKd (TJP3_3, O95049; [1]): below the threshold
- pKd (LAP2, Q96RT1; [1]): 5.04
- pKd (HTRA2, O43464; [1]): below the threshold
- pKd (GRIP1_5, Q9Y3R0; [1]): below the threshold
- pKd (SNTB1, Q13884; [1]): 5.29
- pKd (GRIP2_4, Q9C0E4; [1]): below the threshold
- pKd (GORASP2, Q9H8Y8; [1]): below the threshold
- pKd (LNX1_1, Q8TBB1; [1]): 4.51
- pKd (MAGI3_2, Q5TCQ9; [1]): 4.29

B2: HTR2C, P28335 (peptide)
chain: SVVSERISSV
- pKd (DLG2_2, Q15700; [2]): 4.4
- pKd (Inadl_6, Q8NI35; [2]): below the threshold
- pKd (PDZRN4_1, Q6ZMN7; [2]): below the threshold
- pKd (LNX1_2, Q8TBB1; [2]): below the threshold
- pKd (APBA3_1, O96018; [2]): below the threshold
- pKd (HTRA3, P83110; [2]): below the threshold
- pKd (GOPC, Q9HD26; [2]): below the threshold
- pKd (DVL3, Q92997; [2]): below the threshold
- pKd (TJP1_3, Q07157; [2]): below the threshold
- pKd (MPP7, Q5T2T1; [2]): below the threshold
- pKd (NHERF4_1, Q86UT5-2; [2]): 3.72
- pKd (HTRA1, Q92743; [2]): 4.18
- pKd (LNX2_3, Q8N448; [2]): below the threshold
- pKd (CARD11, Q9BXL7; [2]): below the threshold
- pKd (LRRC7, Q96NW7; [2]): below the threshold
- pKd (FRMPD3, Q5JV73; [2]): below the threshold
- pKd (DLG4_3, P78352; [2]): below the threshold
- pKd (GRIP2_6, Q9C0E4; [2]): below the threshold
- pKd (TJP3_3, O95049; [2]): below the threshold
- pKd (LAP2, Q96RT1; [2]): below the threshold
- pKd (HTRA2, O43464; [2]): below the threshold
- pKd (GRIP1_5, Q9Y3R0; [2]): below the threshold
- pKd (SNTB1, Q13884; [2]): 4.89
- pKd (GRIP2_4, Q9C0E4; [2]): below the threshold
- pKd (GORASP2, Q9H8Y8; [2]): 3.89
- pKd (LNX1_1, Q8TBB1; [2]): below the threshold
- pKd (MAGI3_2, Q5TCQ9; [2]): 4.46

B3: GRIN2B, Q13224 (peptide)
chain: EKLSSIESDV
- pKd (DLG2_2, Q15700; [3]): below the threshold
- pKd (Inadl_6, Q8NI35; [3]): below the threshold
- pKd (PDZRN4_1, Q6ZMN7; [3]): below the threshold
- pKd (LNX1_2, Q8TBB1; [3]): below the threshold
- pKd (APBA3_1, O96018; [3]): below the threshold
- pKd (HTRA3, P83110; [3]): below the threshold
- pKd (GOPC, Q9HD26; [3]): 3.63
- pKd (DVL3, Q92997; [3]): below the threshold
- pKd (TJP1_3, Q07157; [3]): below the threshold
- pKd (MPP7, Q5T2T1; [3]): below the threshold
- pKd (NHERF4_1, Q86UT5-2; [3]): 3.53
- pKd (HTRA1, Q92743; [3]): below the threshold
- pKd (LNX2_3, Q8N448; [3]): below the threshold
- pKd (CARD11, Q9BXL7; [3]): below the threshold
- pKd (LRRC7, Q96NW7; [3]): 3.63
- pKd (FRMPD3, Q5JV73; [3]): below the threshold
- pKd (DLG4_3, P78352; [3]): below the threshold
- pKd (GRIP2_6, Q9C0E4; [3]): below the threshold
- pKd (TJP3_3, O95049; [3]): below the threshold
- pKd (LAP2, Q96RT1; [3]): 4.26
- pKd (HTRA2, O43464; [3]): below the threshold
- pKd (GRIP1_5, Q9Y3R0; [3]): below the threshold
- pKd (SNTB1, Q13884; [3]): 4.46
- pKd (GRIP2_4, Q9C0E4; [3]): below the threshold
- pKd (GORASP2, Q9H8Y8; [3]): below the threshold
- pKd (LNX1_1, Q8TBB1; [3]): 4.13
- pKd (MAGI3_2, Q5TCQ9; [3]): 3.54

B4: ARHGEF16, Q5VV41 (peptide)
chain: MERLRVETDV
- pKd (DLG2_2, Q15700; [1]): 5.21
- pKd (Inadl_6, Q8NI35; [1]): below the threshold
- pKd (PDZRN4_1, Q6ZMN7; [1]): 3.83
- pKd (LNX1_2, Q8TBB1; [1]): 3.62
- pKd (APBA3_1, O96018; [1]): below the threshold
- pKd (HTRA3, P83110; [1]): below the threshold
- pKd (GOPC, Q9HD26; [1]): 3.84
- pKd (DVL3, Q92997; [1]): 3.65
- pKd (TJP1_3, Q07157; [1]): below the threshold
- pKd (MPP7, Q5T2T1; [1]): 3.54
- pKd (NHERF4_1, Q86UT5-2; [1]): below the threshold
- pKd (HTRA1, Q92743; [1]): below the threshold
- pKd (LNX2_3, Q8N448; [1]): below the threshold
- pKd (CARD11, Q9BXL7; [1]): below the threshold
- pKd (LRRC7, Q96NW7; [1]): 3.81
- pKd (FRMPD3, Q5JV73; [1]): below the threshold
- pKd (DLG4_3, P78352; [1]): below the threshold
- pKd (GRIP2_6, Q9C0E4; [1]): below the threshold
- pKd (TJP3_3, O95049; [1]): below the threshold
- pKd (LAP2, Q96RT1; [1]): 4.39
- pKd (HTRA2, O43464; [1]): below the threshold
- pKd (GRIP1_5, Q9Y3R0; [1]): below the threshold
- pKd (SNTB1, Q13884; [1]): 4.84
- pKd (GRIP2_4, Q9C0E4; [1]): below the threshold
- pKd (GORASP2, Q9H8Y8; [1]): 4.25
- pKd (LNX1_1, Q8TBB1; [1]): 4.03
- pKd (MAGI3_2, Q5TCQ9; [1]): 4.6
